According to patent US20250154283A1 (published 2025):
Residue numbers refer to the chain shown, from its start.

T1: biotinylated human VWF cysteine knot (CK) domain construct (human, biotin on the in vitro biotinylation tag (residue not stated); one N-glycan)
T1 construct: Disulfide-linked homodimer; also called biotinylated human VWF CK domain; human VWF CK domain construct
T1 chain: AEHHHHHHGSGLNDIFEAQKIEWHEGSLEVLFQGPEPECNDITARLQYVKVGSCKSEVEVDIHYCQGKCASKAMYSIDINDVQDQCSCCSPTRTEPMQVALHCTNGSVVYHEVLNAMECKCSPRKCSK

B1: Lib4_P2_A3_scFv (scFv, not shown: small tags and cut ends)
scFv: QVQLQESGPGLVKPSQTLSLTCTVSGVSLSTSDYSWSWIRQPPGKGLEWIGYISPPGRSDYNPSLKSRVTMSVDTSKNQFSLKVNSVTAADTAVYYCARHSSSGWYSTYDFDSWGQGTMVTVSSSGGSTITSYNVYYTKLSSSGTEIVMTQSPATLSLSPGERATLSCRASQNIHSNLAWYQQKPGQAPRLLIYGATTRATGIPARFSGSGSGTDFTLTISSLEPEDFAVYYCQQSYTTPLTFGGGTKVEIK
B2: Lib1_P1_C6_scFv (scFv, not shown: small tags and cut ends)
scFv: QVQLVQSGAEVKKPGASVKVSCKVSGYTFASHYIHWVRQAPGKGLEWMGGMDPATGQTIYAQKFQGRVTMTEDTSTDTAYMELSSLKSEDTAVYYCAKGDRSSWYEVLSFQHWGQGTLVTVSSSGGSTITSYNVYYTKLSSSGTDIQMTQSPSSVSASVGDRVTITCRASQGISTDLAWYQQKPGKAPKLLIYDASILQRGVPSRFSGSGSGTDFTLTISSLQPEDFANYYCQQVRTYPFTFGGGTKVEIK
B3: Lib1_P1_A2_scFv (scFv, not shown: small tags and cut ends)
scFv: QVQLVQSGAEVKKPGASVKVSCKVSEGTLSRHYINWVRQAPGKGLEWMGGINAKSGATIYAQKFQGRVTMTEDTSTDTAYMELSSLKSEDTAVYYCAKDTGDDILTDYSDAFDIWGQGTMVTVSSSGGSTITSYNVYYTKLSSSGTDIQMTQSPSSVSASVGDRVTITCRASQNIGTSLAWYQQKPGKAPKLLIYGASNLESGVPSRFSGSGSGTDFTLTISSLQPEDFANYYCLQYNDWPPLYSFGGGTKVEIK
B4: Lib1_P1_A1_scFv (scFv, not shown: small tags and cut ends)
scFv: QVQLVQSGAEVKKPGASVKVSCKVSGDTLSNYAIHWVRQAPGKGLEWMGGINPNAGTTIYAQKFQGRVTMTEDTSTDTAYMELSSLKSEDTAVYYCARDSSSWSQFGYYYYYMDVWGKGTTVTVSSSGGSTITSYNVYYTKLSSSGTDIQMTQSPSSVSASVGDRVTITCRASQSIGDFLAWYQQKPGKAPKLLIYDASHLQTGVPSRFSGSGSGTDFTLTISSLQPEDFANYYCQQTSTIPPTFGGGTKVEIK
B5: 4035_Lib1_scFv (scFv, not shown: small tags and cut ends)
scFv: QVQLVQSGAEVKKPGASVKVSCKVSGYAFPSYGIHWVRQAPGKGLEWMGGISAFTGDTIYAQKFQGRVTMTEDTSTDTAYMELSSLKSEDTAVYYCASGPTNVLTGLMESAEYFQHWGQGTLVTVSSSGGSTITSYNVYYTKLSSSGTDIQMTQSPSSVSASVGDRVTITCRASQGISRDLAWYQQKPGKAPKLLIYGASGRATGVPSRFSGSGSGTDFTLTISSLQPEDFANYYCQQSYITPTTFGGGTKVEIK
B6: 487_Lib1_scFv (scFv, not shown: small tags and cut ends)
scFv: QVQLVQSGAEVKKPGASVKVSCKVSGYTFTSHIIHWVRQAPGKGLEWMGGMNPYSNKAIYAQKFQGRVTMTEDTSTDTAYMELSSLKSEDTAVYYCARDASDYGDYGYYYYYMDVWGKGTTVTVSSSGGSTITSYNVYYTKLSSSGTDIQMTQSPSSVSASVGDRVTITCRASQSIGDFLAWYQQKPGKAPKLLIYDASHLQTGVPSRFSGSGSGTDFTLTISSLQPEDFANYYCQQTSTIPPTFGGGTKVEIK
B7: 256_Lib8_scFv (scFv, not shown: small tags and cut ends)
scFv: EVQLVESGGGLVQPGRSLRLSCAASGFTVSSNAMHWVRQAPGKGLEWVSAIGTFADTDYADSVEGRFTISRDNAKNSLYLQMNSLRAEDTAVYYCAREGAAAGTNFDYWGQGTLVTVSSSGGSTITSYNVYYTKLSSSGTDIQMTQSPSSLSASVGDRVTITCRASQGIRSYLAWYQQKPGKAPKLLIYGASTLEGGVPSRFSGSGSGTDFTLTISSLQPEDVATYYCQQSYSTPPKFGGGTKVEIK
B8: 3964_Lib4_scFv (scFv, not shown: small tags and cut ends)
scFv: QVQLQESGPGLVKPSQTLSLTCTVSGASISTHSWSWIRQPPGKGLEWIGYINPSGDIDYNPSLKSRVTMSVDTSKNQFSLKVNSVTAADTAVYYCARGRTGFDSSGFVVGAFDIWGQGTMVTVSSSGGSTITSYNVYYTKLSSSGTEIVMTQSPATLSLSPGERATLSCRASQNVNDNLAWYQQKPGQAPRLLIYDASTRPTGIPARFSGSGSGTDFTLTISSLEPEDFAVYYCQQYLTIPRTFGGGTKVEIK
B9: 189_Lib4_scFv (scFv, not shown: small tags and cut ends)
scFv: QVQLQESGPGLVKPSQTLSLTCTVSGVTFSSYGWSWIRQPPGKGLEWIGYVDTSGSTDYNPSLKSRVTMSVDTSKNQFSLKVNSVTAADTAVYYCARTTYYYDSSGFARGWFDPWGQGTLVTVSSSGGSTITSYNVYYTKLSSSGTEIVMTQSPATLSLSPGERATLSCRASQSVPSSHLAWYQQKPGQAPRLLIYDATNRAAGIPARFSGSGSGTDFTLTISSLEPEDFAVYYCQQYDNWPSPSFGGGTKVEIK
B10: 2738_Lib1_scFv (scFv, not shown: small tags and cut ends)
scFv: QVQLVQSGAEVKKPGASVKVSCKVSGYTLTDLPIHWVRQAPGKGLEWMGGINPFLGTTIYAQKFQGRVTMTEDTSTDTAYMELSSLKSEDTAVYYCARGVDMLATARDYYYMAIWGKGTTVTVSSSGGSTITSYNVYYTKLSSSGTDIQMTQSPSSVSASVGDRVTITCRASQSIGNDLAWYQQKPGKAPKLLIYGASMRATGVPSRFSGSGSGTDFTLTISSLQPEDFANYYCQQYASDPLTFGGGTKVEIK
B11: Lib1_P1_E9_scFv (scFv, not shown: small tags and cut ends)
scFv: QVQLVQSGAEVKKPGASVKVSCKVSGYTFTSHIIHWVRQAPGKGLEWMGGMNPYSNKAIYAQKFQGRVTMTEDTSTDTAYMELSSLKSEDTAVYYCARDASDYGDYGYYYYYMDVWGKGTTVTVSSSGGSTITSYNVYYTKLSSSGTDIQMTQSPSSVSASVGDRVTITCRASQYIGNDLAWYQQKPGKAPKLLIYEASQRPSGVPSRFSGSGSGTDFTLTISSLQPEDFANYYCQQQYNYPLTFGGGTKVEIK
B12: 4142_Lib1_scFv (scFv, not shown: small tags and cut ends)
scFv: QVQLVQSGAEVKKPGASVKVSCKVSGYPFTSSGIHWVRQAPGKGLEWMGGVIPLFGTANYAQKFQGRVTMTEDTSTDTAYMELSSLKSEDTAVYYCARIRVSSGWYRDYGMDVWGQGTTVTVSSSGGSTITSYNVYYTKLSSSGTDIQMTQSPSSVSASVGDRVTITCRASQDITNDLAWYQQKPGKAPKLLIYDASRLQSGVPSRFSGSGSGTDFTLTISSLQPEDFANYYCQQTFTTPLTFGGGTKVEIK
B13: 4029_Lib1_scFv (scFv, not shown: small tags and cut ends)
scFv: B12 scFv with D173S, T175G, N176D, D177F, R198H, S201T, F237S, T239I, L241P
B14: Lib6_P3_B9_scFv (scFv, not shown: small tags and cut ends)
scFv: EVQLVQSGAEVKKPGASVKVSCKASGDTFSSHVISWVRQAPGQGLEWMGGINPRTGTTIYAQKLQGRGTMTTDPSTSTAYMELRSLRSDDTAVYYCARTRPWAGLDVWGQGTTVTVSSSGGSTITSYNVYYTKLSSSGTESALTQPASVSGSPGQSITISCTGTNIEYKGVSWYQQHPGKAPKLMIYGVDKRPSGVSNRFSGSKSGNTASLTISGLQAEDEADYYCQAWGTSTAIFGGGTKLTVL
B15: Lib4_P2_A1_scFv (scFv, not shown: small tags and cut ends)
scFv: QVQLQESGPGLVKPSQTLSLTCTVSGASFGDNYWSWIRQPPGKGLEWIGYIDTSGSSDYNPSLKSRVTMSVDTSKNQFSLKVNSVTAADTAVYYCARVSWGYYAMDVWGQGTTVTVSSSGGSTITSYNVYYTKLSSSGTEIVMTQSPATLSLSPGERATLSCRASQGISGRLAWYQQKPGQAPRLLIYDVSTRATGIPARFSGSGSGTDFTLTISSLEPEDFAVYYCQQYDTSAPLTFGGGTKVEIK
B16: Lib1_P1_D1_scFv (scFv, not shown: small tags and cut ends)
scFv: QVQLVQSGAEVKKPGASVKVSCKVSGDTFTDRYIHWVRQAPGKGLEWMGGINTIFGTAIYAQKFQGRVTMTEDTSTDTAYMELSSLKSEDTAVYYCAREGATVSTNFDYWGQGTLVTVSSSGGSTITSYNVYYTKLSSSGTDIQMTQSPSSVSASVGDRVTITCRASQDIRKSLAWYQQKPGKAPKLLIYDISNRPSGVPSRFSGSGSGTDFTLTISSLQPEDFANYYCQQGYSAPYGFGGGTKVEIK
B17: 3552_Lib8_scFv (scFv, not shown: small tags and cut ends)
scFv: EVQLVESGGGLVQPGRSLRLSCAASEFTFGDYDMHWVRQAPGKGLEWVSAISSSGSNRDYADSVEGRFTISRDNAKNSLYLQMNSLRAEDTAVYYCARDAWFGDAFDIWGQGTMVTVSSSGGSTITSYNVYYTKLSSSGTDIQMTQSPSSLSASVGDRVTITCRASESVSSWLAWYQQKPGKAPKLLIYGASTLEGGVPSRFSGSGSGTDFTLTISSLQPEDVATYYCQQSYSFPDFGGGTKVEIK
B18: 4166_Lib4_scFv (scFv, not shown: small tags and cut ends)
scFv: QVQLQESGPGLVKPSQTLSLTCTVSGESFSGHFWSWIRQPPGKGLEWIGYISQSGRTDYNPSLKSRVTMSVDTSKNQFSLKVNSVTAADTAVYYCARTLPRIQLWSPRGAFDIWGQGTMVTVSSSGGSTITSYNVYYTKLSSSGTEIVMTQSPATLSLSPGERATLSCRASQSLGRSLAWYQQKPGQAPRLLIYDASHRATGIPARFSGSGSGTDFTLTISSLEPEDFAVYYCQQYVSYPLTFGGGTKVEIK
B19: Lib4_P2_B4_scFv (scFv, not shown: small tags and cut ends)
scFv: QVQLQESGPGLVKPSQTLSLTCTVSGASLGDQYWSWIRQPPGKGLEWIGYIHPSGDFDYNPSLKSRVTMSVDTSKNQFSLKVNSVTAADTAVYYCARHYSSSWYGTWYFDLWGRGTLVTVSSSGGSTITSYNVYYTKLSSSGTEIVMTQSPATLSLSPGERATLSCRASQNIGTNLAWYQQKPGQAPRLLIYDASVRAAGIPARFSGSGSGTDFTLTISSLEPEDFAVYYCQQSLTTPLTFGGGTKVEIK
B20: 96_Lib4_scFv (scFv, not shown: small tags and cut ends)
scFv: QVQLQESGPGLVKPSQTLSLTCTVSGESFSTSYWSWIRQPPGKGLEWIGYITHSGYTDYNPSLKSRVTMSVDTSKNQFSLKVNSVTAADTAVYYCARGGRFPFWYFDLWGRGSLVTVSSSGGSTITSYNVYYTKLSSSGTEIVMTQSPATLSLSPGERATLSCRASRSIGSNLAWYQQKPGQAPRLLIYGATTRATGIPARFSGSGSGTDFTLTISSLEPEDFAVYYCQQYKNDATFGGGTKVEIK

Biological target: T1, biotinylated human VWF cysteine knot …
Experiment: SPR, scFv captured on anti-SV5, pH 7.4
Source text: Briefly, a sensor chip was activated and coupled with an anti-SV5 mouse monoclonal antibody using amine coupling. The soluble scFvs in crude yeast supernatants were printed on the anti-SV5 lawn. […] From the measured association (kₒₙ) and dissociation (koff) rate constants, an apparent equilibrium dissociation constant (Kd=koff/kₒₙ) was estimated. Due to the dimeric state of the CK construct and consequent possibility for simultaneous binding of captured scFv to both monomers in the CK dimer, the SPR setup was expected to overestimate the binding affinity.

| Binder | binding result |
| --- | --- |
| B1 | binds |
| B2 | binds |
| B3 | binds |
| B4 | binds |
| B5 | binds |
| B6 | binds |
| B7 | binds |
| B8 | binds |
| B9 | binds |
| B10 | binds |
| B11 | binds |
| B12 | binds |
| B13 | binds |
| B14 | binds |
| B15 | binds |
| B16 | binds |
| B17 | binds |
| B18 | binds |
| B19 | binds |
| B20 | binds |
